{"source": "patent US20230265151A1", "about": "“GIP/GLP1 CO-AGONIST COMPOUNDS” (priority 2020, published 2023)", "binders": {"B1": {"name": "Y-Aib-EGT-αMeF(2F)-TSD-4Pal-Aib-I-αMeL-LD-Orn-QAQ-Aib-Orn-FIK((2-[2-(2-Amino-ethoxy)-ethoxy]-acetyl)-(γ-Glu)-(2-[2-(2-Amino-ethoxy)-ethoxy]-acetyl)-(γ-Glu)-(10- … (peptide)", "peptide": "YXEGTXTSDXXIXLDXQAQXXFIKXLIKGGPSSGAPPPS", "modifications": "Aib2, αMeF(2F)6, 4Pal10, Aib11, αMeL13, Orn16, Aib20, Orn21, K24(Z1), αMeY25, K28(Z1), C-term NH2; Z1=AEEA-(γ-Glu)-AEEA-(γ-Glu)-(10-(4-carboxyphenoxy)decanoyl)"}, "B2": {"name": "Y-Aib-EGT-αMeF(2F)-TSD-4Pal-Aib-I-αMeL-LD-Orn-QAQ-Aib-4Pal-FIK((2-[2-(2-Amino-ethoxy)-ethoxy]-acetyl)2-(γ-Glu)-(10-(4-carboxyphenoxy)decanoyl))-αMeY-LIK((2-[2-( … (peptide)", "peptide": "B1 peptide", "modifications": "Aib2, αMeF(2F)6, 4Pal10, Aib11, αMeL13, Orn16, Aib20, 4Pal21, K24(Z1), αMeY25, K28(Z1), C-term NH2; Z1=AEEA2-(γ-Glu)-(10-(4-carboxyphenoxy)decanoyl)"}, "B3": {"name": "Y-Aib-EGT-αMeF(2F)-TSD-4Pal-Aib-I-αMeL-LD-Orn-QAQ-Aib-Orn-FIK(((2-[2-(2-Amino-ethoxy)-ethoxy]-acetyl)2--Trx-(γ-Glu)-(10-(4-carboxyphenoxy)decanoyl))-αMeY-LIK((( … (peptide)", "peptide": "B1 peptide", "modifications": "Aib2, αMeF(2F)6, 4Pal10, Aib11, αMeL13, Orn16, Aib20, Orn21, K24(Z1), αMeY25, K28(Z1), C-term NH2; Z1=AEEA2-Trx-(γ-Glu)-(10-(4-carboxyphenoxy)decanoyl)"}, "B4": {"name": "Y-Aib-EGT-αMeF(2F)-TSD-4Pal-Aib-I-αMeL-LD-Orn-QAQ-Aib-Orn-FIK((2-[2-(2-Amino-ethoxy)-ethoxy]-acetyl)3-(γ-Glu)-CO-(CH2)12-CO2H)-αMeY-LIK((2-[2-(2-Amino-ethoxy)-e … (peptide)", "peptide": "B1 peptide", "modifications": "Aib2, αMeF(2F)6, 4Pal10, Aib11, αMeL13, Orn16, Aib20, Orn21, K24(Z1), αMeY25, K28(Z1), C-term NH2; Z1=AEEA3-(γ-Glu)-CO-(CH2)12-CO2H"}, "B5": {"name": "Y-Aib-EGT-αMeF(2F)-TSD-4Pal-Aib-I-αMeL-LD-Orn-QAQ-Aib-Orn-FIK((2-[2-(2-Amino-ethoxy)-ethoxy]-acetyl)2-(γ-Glu)2--(10-(4-carboxyphenoxy)decanoyl))-αMeY-LIK((2-[2- … (peptide)", "peptide": "B1 peptide", "modifications": "Aib2, αMeF(2F)6, 4Pal10, Aib11, αMeL13, Orn16, Aib20, Orn21, K24(Z1), αMeY25, K28(Z1), C-term NH2; Z1=AEEA2-(γ-Glu)2-(10-(4-carboxyphenoxy)decanoyl)"}, "B6": {"name": "Y-Aib-EGT-αMeF(2F)-TSD-4Pal-Aib-I-αMeL-LD-Orn-QAQ-Aib-Orn-FIK(((2-[2-(2-Amino-ethoxy)-ethoxy]-acetyl)-Trx-(γ-Glu)-(10-(4-carboxyphenoxy)decanoyl))-αMeY-LIK(((2- … (peptide)", "peptide": "B1 peptide", "modifications": "Aib2, αMeF(2F)6, 4Pal10, Aib11, αMeL13, Orn16, Aib20, Orn21, K24(Z1), αMeY25, K28(Z1), C-term NH2; Z1=AEEA-Trx-(γ-Glu)-(10-(4-carboxyphenoxy)decanoyl)"}, "B7": {"name": "Y-Aib-EGT-αMeF(2F)-TSD-4Pal-Aib-I-αMeL-LD-Orn-QAQ-Aib-Orn-FIK(((2-[2-(2-Amino-ethoxy)-ethoxy]-acetyl)-Trx-(γ-Glu)-CO-(CH2)12-CO2H)-αMeY-LIK(((2-[2-(2-Amino-etho … (peptide)", "peptide": "B1 peptide", "modifications": "Aib2, αMeF(2F)6, 4Pal10, Aib11, αMeL13, Orn16, Aib20, Orn21, K24(Z1), αMeY25, K28(Z1), C-term NH2; Z1=AEEA-Trx-(γ-Glu)-CO-(CH2)12-CO2H"}, "B8": {"name": "Y-Aib-EGT-αMeF(2F)-TSD-4Pal-Aib-I-αMeL-LD-Orn-QAQ-Aib-Orn-FIK((2-[2-(2-Amino-ethoxy)-ethoxy]-acetyl)3-(γ-Glu)--(10-(4-carboxyphenoxy)decanoyl))-αMeY-LIK((2-[2-( … (peptide)", "peptide": "B1 peptide", "modifications": "Aib2, αMeF(2F)6, 4Pal10, Aib11, αMeL13, Orn16, Aib20, Orn21, K24(Z1), αMeY25, K28(Z1), C-term NH2; Z1=AEEA3-(γ-Glu)-(10-(4-carboxyphenoxy)decanoyl)"}}, "note": "*1 amine or outer side, *2 acyl side, *3 side chain or, on linkers, in order; H or OH if unused. Where no end group is shown, it is not given here. Side-chain parts run from the residue outwards. [ ]: non-standard residue; d: D form. The star is where a group is joined. αMePhe(2-F) = C[C@](N)(Cc1ccccc1F)C(=O)O; γGlu = O=C(O)[C@H](CCC(=O)[*:2])N[*:1]; C14 diacid = O=C(O)CCCCCCCCCCCCC(=O)*; αMeY = C[C@](N)(Cc1ccc(O)cc1)C(=O)O; αMeL = CC(C)C[C@](C)(N)C(=O)O; Nle = CCCC[C@H](N)C(=O)O; Orn = NCCC[C@H](N)C(=O)O; AEEA = NCCOCCOCC(=O)O; Aib = CC(C)(N)C(=O)O"}
{"target": "T1, human GIP receptor (human, UniProt P48546 22-466)", "T1 construct": "whole, on cells; also called hGIPR; human glucose-dependent insulinotropic polypeptide receptor", "T1 sequence (looked up)": "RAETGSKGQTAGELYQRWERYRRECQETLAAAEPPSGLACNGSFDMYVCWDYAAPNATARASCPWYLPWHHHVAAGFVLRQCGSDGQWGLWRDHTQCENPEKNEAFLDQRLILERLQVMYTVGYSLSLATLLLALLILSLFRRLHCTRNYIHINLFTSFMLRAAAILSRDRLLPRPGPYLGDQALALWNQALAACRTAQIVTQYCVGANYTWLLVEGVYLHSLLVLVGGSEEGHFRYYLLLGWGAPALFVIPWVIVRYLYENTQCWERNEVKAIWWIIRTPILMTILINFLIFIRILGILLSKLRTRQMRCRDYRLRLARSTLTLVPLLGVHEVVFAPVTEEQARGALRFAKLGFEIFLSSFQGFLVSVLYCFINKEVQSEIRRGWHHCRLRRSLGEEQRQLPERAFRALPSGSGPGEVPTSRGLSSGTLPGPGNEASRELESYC", "assay": "SPA competition vs [125I]-GIP, hGIPR membranes", "units": {"Ki": "nM"}}
{"binder": "Y[Aib]EGT[αMePhe(2-F)]TSD[Nle]SI[αMeL]LD[Orn]QAQ[Aib][Orn]FIK([AEEA-AEEA-γGlu-C14 diacid])[αMeY]LIK([AEEA-AEEA-γGlu-C14 diacid])GGPSSGAPPPS-NH2", "Ki": 0.0288}
{"binder": "B1", "Ki": 0.0548}
{"binder": "B2", "Ki": 0.0345}
{"binder": "B3", "Ki": 0.0493}
{"binder": "B4", "Ki": 0.0351}
{"binder": "B5", "Ki": 0.0294}
{"binder": "B6", "Ki": 0.0319}
{"binder": "B7", "Ki": 0.0376}
{"binder": "B8", "Ki": 0.0279}
{"target": "T2, human GLP-1 receptor (human, UniProt P43220 24-463)", "T2 construct": "whole, on cells; also called hGLP-1R; human glucagon-like peptide-1 receptor", "assay": "SPA competition vs [125I]-GLP-1, hGLP-1R membranes", "how_it_was_run": "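Competition binding in 25 mM HEPES pH 7.4, 2.5 mM CaCl₂, 1 mM MgCl₂, 0.1% bacitracin, 0.003% TWEEN-20, EDTA-free protease inhibitors. IC₅₀ from four-parameter nonlinear fit; Kᵢ given as geometric mean ± SEM, n = independent replicates on different days.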", "units": {"Ki": "nM"}}
{"binder": "Y[Aib]EGT[αMePhe(2-F)]TSD[Nle]SI[αMeL]LD[Orn]QAQ[Aib][Orn]FIK([AEEA-AEEA-γGlu-C14 diacid])[αMeY]LIK([AEEA-AEEA-γGlu-C14 diacid])GGPSSGAPPPS-NH2", "Ki": 0.27}
{"binder": "B1", "Ki": 0.3}
{"binder": "B2", "Ki": 0.25}
{"binder": "B3", "Ki": 0.197}
{"binder": "B4", "Ki": 0.226}
{"binder": "B5", "Ki": 0.189}
{"binder": "B6", "Ki": 0.169}
{"binder": "B7", "Ki": 0.254}
{"binder": "B8", "Ki": 0.143}
{"target": "T3, human glucagon receptor (human, UniProt P47871 26-477)", "T3 construct": "whole, on cells; also called hGCGR; hGcgR", "T3 sequence (P47871 26-477)": "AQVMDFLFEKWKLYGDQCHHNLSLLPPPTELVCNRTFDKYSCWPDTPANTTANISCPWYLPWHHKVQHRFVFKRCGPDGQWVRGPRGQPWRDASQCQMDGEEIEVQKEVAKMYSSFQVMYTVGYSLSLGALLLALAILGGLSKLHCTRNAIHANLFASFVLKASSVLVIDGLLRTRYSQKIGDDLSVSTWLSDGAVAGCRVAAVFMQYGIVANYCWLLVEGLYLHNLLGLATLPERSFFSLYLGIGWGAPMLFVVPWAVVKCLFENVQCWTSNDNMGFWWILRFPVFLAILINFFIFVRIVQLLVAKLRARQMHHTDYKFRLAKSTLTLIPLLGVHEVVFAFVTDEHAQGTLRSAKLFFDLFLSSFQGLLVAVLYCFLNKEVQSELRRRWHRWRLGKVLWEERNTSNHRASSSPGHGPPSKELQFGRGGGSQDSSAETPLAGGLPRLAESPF", "assay": "SPA competition vs [125I]-Gcg, hGcgR membranes", "units": {"Ki": "nM"}}
{"binder": "Y[Aib]EGT[αMePhe(2-F)]TSD[Nle]SI[αMeL]LD[Orn]QAQ[Aib][Orn]FIK([AEEA-AEEA-γGlu-C14 diacid])[αMeY]LIK([AEEA-AEEA-γGlu-C14 diacid])GGPSSGAPPPS-NH2", "Ki": 37.8}
{"binder": "B1", "Ki": 121}
{"binder": "B2", "Ki": 70.1}
{"binder": "B3", "Ki": 452}
{"binder": "B4", "Ki": 605}
{"binder": "B5", "Ki": 139}
{"binder": "B6", "Ki": 162}
{"binder": "B7", "Ki": 258}
{"binder": "B8", "Ki": 268}
